The chains are these.
B1: IMP731 (antibody, human IgG1, kappa)
heavy: not shown
light: DIVMTQSPSSLAVSVGQKVTMSCKSSQSLLNGSNQKNYLAWYQQKPGQSPKLLVYFASTRDSGVPDRFIGSGSGTDFTLTISSVQAEDLADYFCLQHFGTPPTFGGGTKLEIKRTVAAPSVFIFPPSDEQLKSGTASVVCLLNNFYPREAKVQWKVDNALQSGNSQESVTEQDSKDSTYSLSSTLTLSKADYEKHKVYACEVTHQGLSSPVTKSFNRGEC
notes: Chimeric (murine variable domains, human IgG1/kappa constant regions); also called A9H12; chimeric antibody IMP731
B2: H5L7BW (antibody, human IgG1, kappa)
heavy: not shown
light: DIQMTQSPSSLSASVGDRVTITCKSSQSLLNPSNQKNYLAWYQQKPGKAPKLLVYFASTRDSGVPSRFSGSGSGTDFTLTISSLQPEDFATYYCLQHFGTPPTFGQGTKLEIKRTVAAPSVFIFPPSDEQLKSGTASVVCLLNNFYPREAKVQWKVDNALQSGNSQESVTEQDSKDSTYSLSSTLTLSKADYEKHKVYACEVTHQGLSSPVTKSFNRGEC
modifications: afucosylated: no fucose on the core carbohydrate structure attached to Asn297
notes: Same plasmids as H5L7, expressed in the BioWa POTELLIGENT (FUT8 knock-out CHO) cell line; also called afucosylated antibody H5L7BW; afucosylated H5L7
B3: H5L7 (antibody, human IgG1, kappa)
heavy: not shown
light: B2 light
notes: Humanised IgG1/kappa of A9H12 (IMP731); also called fucosylated H5L7; non-ADCC enhanced variant H5L7

This is an account of results in patent US20160017037A1 (GlaxoSmithKline, published 2016).

Numbering of substitutions follows the chain as printed.

T3 sequence (P12314 16-288 limits assumed): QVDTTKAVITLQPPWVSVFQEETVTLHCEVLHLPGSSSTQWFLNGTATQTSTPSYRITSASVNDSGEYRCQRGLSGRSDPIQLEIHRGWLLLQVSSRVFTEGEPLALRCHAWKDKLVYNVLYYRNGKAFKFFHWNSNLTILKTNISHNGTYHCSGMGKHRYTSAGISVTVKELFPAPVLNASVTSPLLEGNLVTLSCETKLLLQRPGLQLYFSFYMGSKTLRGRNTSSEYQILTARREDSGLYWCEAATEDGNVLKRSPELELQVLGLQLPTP

One experiment has as its target T1, Recombinant baboon LAG-3 ECD-His6 (baboon, UniProt P18627 24-433 (human entry)).
T1 construct: In-house generated
T1 chain: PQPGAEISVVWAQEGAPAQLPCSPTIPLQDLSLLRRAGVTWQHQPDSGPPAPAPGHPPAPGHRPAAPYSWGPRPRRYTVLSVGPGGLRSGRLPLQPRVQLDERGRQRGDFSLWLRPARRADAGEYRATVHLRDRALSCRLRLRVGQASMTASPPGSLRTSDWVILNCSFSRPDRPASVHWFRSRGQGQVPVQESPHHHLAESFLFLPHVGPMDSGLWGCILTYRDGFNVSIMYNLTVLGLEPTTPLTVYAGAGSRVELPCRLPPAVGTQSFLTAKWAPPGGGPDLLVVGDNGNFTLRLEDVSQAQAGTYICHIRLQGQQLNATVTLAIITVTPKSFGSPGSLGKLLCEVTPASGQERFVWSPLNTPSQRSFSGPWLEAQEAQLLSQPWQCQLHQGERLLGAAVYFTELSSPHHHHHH
The experiment in a line: SPR Biacore T100, antibody captured on Protein A, LAG-3 ECD-His6 analyte 0.0625-16 nM, 1:1 model, 37 C. The protocol:
(§1) The binding cross reactivity of anti-LAG-3 humanised antibodies for both cynomolgus macaque (cyno) and baboon recombinant LAG-3 ECD-His6 (SEQ ID NOs 52 and 53, respectively) was assessed using the Biacore™ T100 (GE Healthcare).
(§2) Protein A was immobilised on a CM5 chip by primary amine coupling. This surface was then used to capture the humanised antibodies. In-house generated recombinant cynomolgus macaque and baboon LAG-3 ECD-His6 were then passed over the captured antibodies and regeneration was carried out using 50 mM NaOH. LAG-3 ECD-His6 was passed over at 16, 4, 1, 0.25 and 0.0625 nM. The binding curves were double referenced with buffer injection (i.e. 0 nM) and the data was fitted to the T100 analysis software using the 1:1 model. The run was carried out at 37° C. using HBS-EP as the running buffer.
A general note: SPR reads the build-up and loss of mass on a sensor chip optically.
Consider B1, for which the dissociation constant Kd (commonly the concentration at which binding is half-saturated) amounted to 0.019 nM.

Regarding B2, the Kd is 0.024 nM.

For B3, the Kd was found to be 0.022 nM.

The target of the next experiment is T2, Recombinant cynomolgus macaque LAG-3 ECD-His6 (cynomolgus macaque, UniProt P18627 24-433 (human entry)).
T2 construct: In-house generated; also called cyno LAG-3
T2 chain: T1 chain with Q188R, E193G, T243A, V288A, N293D, R357H
The experiment is described as above. The protocol:
as §1, §2
On to B1, for which the Kd was 0.021 nM.

Regarding B2, the Kd amounted to 0.021 nM.

For the molecule B3, the Kd is 0.017 nM.

The next experiment has as its target T3, recombinant soluble human FcγRI (human, UniProt P12314 16-288, limits assumed).
T3 construct: also called CD64
The experiment in a line: SPR ProteOn XPR36, His-tagged receptor captured on anti-poly-histidine IgG, antibody analyte 8-2048 nM, equilibrium model, 25 C. The protocol: A goat anti-poly-histidine IgG was immobilised on a GLM biosensor chip by primary amine coupling. This surface was used as a capture surface for the poly-histidine tagged human Fc gamma receptors. […] The goat anti-poly-histidine IgG surface was regenerated with 100 mM phosphoric acid between interactions. The run was carried out on the ProteOn XPR36 Protein Array Interaction System at 25° C. and using HBS-EP as running buffer. Data was analysed for each receptor separately, setting a global R-max and using the Equilibrium Model inherent to the ProteOn's analysis software. Control molecules were run at the beginning and the end of the set of samples to be tested to ensure comparability of results. Data was compared from two experiments and hybrid control antibodies used as controls between experiments.
Consider B1, for which the Kd was 39 nM.

In the case of B2, the Kd was found to be 26.4 nM.

Take B3: the dissociation constant Kd was 26.3 nM.

In the next experiment the target is T4, Human LAG-3 on cells (human LAG-3 expressing EL4 cells; activated human CD3+ T cells) (human, UniProt P18627 23-525).
T4 construct: whole, on cells; also called LAG-3 positive T cells
T4 sequence (looked up): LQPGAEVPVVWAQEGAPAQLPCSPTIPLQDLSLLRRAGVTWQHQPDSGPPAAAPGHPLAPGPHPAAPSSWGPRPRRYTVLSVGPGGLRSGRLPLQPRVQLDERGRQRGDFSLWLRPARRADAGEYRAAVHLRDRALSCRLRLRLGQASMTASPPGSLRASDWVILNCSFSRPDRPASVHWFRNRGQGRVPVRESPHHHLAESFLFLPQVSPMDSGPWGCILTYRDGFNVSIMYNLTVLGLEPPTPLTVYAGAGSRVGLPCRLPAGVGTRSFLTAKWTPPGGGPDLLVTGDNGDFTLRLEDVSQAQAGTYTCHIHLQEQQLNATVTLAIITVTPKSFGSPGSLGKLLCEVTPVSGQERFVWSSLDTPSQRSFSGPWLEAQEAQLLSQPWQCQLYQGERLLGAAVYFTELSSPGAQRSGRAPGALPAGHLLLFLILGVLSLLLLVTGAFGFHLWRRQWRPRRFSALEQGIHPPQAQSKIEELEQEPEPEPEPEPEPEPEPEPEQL
The experiment in a line: flow cytometry (MFI), Alexa647-conjugated antibody titrated on activated human CD3+ T cells; direct binding curve, half-maximal value labelled IC50 in the table under the graph; unit taken from the concentration axis. As to the method:
CD3⁺ T cells were prepared from PBMCs by negative selection using Untouched Human T cell Dynal beads. CD3⁺ T cells were activated by incubation with immobilised anti-CD3 and anti-CD28 and soluble recombinant human IL-12 for 3 days at 37° C. Activated cells were incubated with Alexa 647-conjugated antibodies of varying concentrations up to 3 μg/ml for 30 minutes at room temperature. Cells were washed with FACS buffer (PBS+0.5% BSA).
EL4 cells and CD3⁺ T cells were analysed by FACS using a Beckman Coulter FC 500 flow cytometer. FACS raw data were analysed using CXP Analysis software (Beckman Coulter). The data was initially plotted on a forward-scatter versus side-scatter plot and the population of cells of interest were gated. This gated population was then plotted as a histogram displaying fluorescence intensity and the mean fluorescence intensity (MFI) calculated. MFI values were then plotted in GraphPad Prism 5 software to generate dose response curves.
On to B1, for which the half-inhibitory concentration (IC50) – broadly, the concentration at which inhibition is half-maximal – stood at 2.14 ng/mL.

Molecule B2 had an IC50 of 3.07 ng/mL.

B3: the IC50 is 3.06 ng/mL.
